Laboratory results: US20180305451A1 (COMPUGEN, published 2018)

Tests used:
[1] = biological target: T1, human HIDE1 (human, UniProt A8MVS5 20-230); experiment: FACS, THP1 cells
T1 construct: Endogenous on U937, HL-60, THP-1 cells, blood monocytes, AML blasts and dendritic cells; also called C19orf38; hHIDE1
T1 sequence: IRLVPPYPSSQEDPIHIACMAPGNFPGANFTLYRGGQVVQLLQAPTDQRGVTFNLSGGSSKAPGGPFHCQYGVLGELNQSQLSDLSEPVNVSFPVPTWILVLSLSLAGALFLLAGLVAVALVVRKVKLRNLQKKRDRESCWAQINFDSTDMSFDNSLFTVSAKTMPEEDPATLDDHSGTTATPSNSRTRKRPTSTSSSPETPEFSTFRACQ

[2] = biological target: T1, human HIDE1; experiment: FACS, U937 cells
[3] = biological target: T1, human HIDE1; experiment: FACS, HL-60 cells
[4] = biological target: T1, human HIDE1; experiment: FACS, U937 cells transfected with HIDE1 siRNA
[5] = biological target: T1, human HIDE1; experiment: FACS, HL-60 cells transfected with HIDE1 siRNA
[6] = biological target: T1, human HIDE1; experiment: FACS, U937 cells transfected with scrambled siRNA
[7] = biological target: T1, human HIDE1; experiment: FACS, HL-60 cells transfected with scrambled siRNA
[8] = biological target: T1, human HIDE1; experiment: FACS, CD14+ cells of human PBMCs, Alexa 647 conjugate
Description: The following antibodies were used. […] Brilliant violet 510 labeled anti-CD3 (Biolegend, cat. 344828), PE-labeled anti-CD14 (Biolegend, cat. 301806) and PercP-labeled anti-CD19 (Biolegend, cat. 302228).
PBMCs cells were thawed and stained with viability dye (BD Horizon; Cat#562247, BD biosciences), washed and pre-blocked with Fc blocking solution (cat#422302, Biolegend; 1:20) and/or human Ig Fc (Jackson; 200 μg/ml; cat#009-000-008) to avoid nonspecific binding via Fc receptors. Cells were then stained with anti-hHIDE1 mAbs or mIgG1 isotype control in the presence or absence of lymphocytes or monocytes surface marker. All samples were run on a MACSQuant analyzer (Miltenyi) and data was analyzed using Tree Star FlowJo software. Cells were first gated for lymphocytes or monocyte (FSC-A vs. SSC-A), and further gated for live cells before analyzed for HIDE1 expression by flow cytometry.

[9] = biological target: T1, human HIDE1; experiment: FACS, THP1 cells transfected with HIDE1 siRNA, AF647 conjugate
Description: Confirmation of HIDE1 endogenous expression was also tested in THP1 cells transfected with HIDE1 siRNA as described in M&M section. Analysis of human HIDE1 membrane expression in the siRNA transfected cells was performed by FACS. As shown in FIG. 31 membrane expressions of human HIDE1 protein is reduced in cells transfected with HIDE1 siRNA (green) as compared to cells transfected with scrambled siRNA (orange).

[10] = biological target: T2, mouse HIDE1 Flag (mouse, UniProt Q75VT8 22-222); experiment: Western blot of whole cell extracts, goat anti-mouse HRP
T2 construct: Over-expressed on HEK293 and EL4 cells (pMSCV); whole cell extracts in WB; also called mHIDE1 flag; not shown: Flag tag
T2 sequence: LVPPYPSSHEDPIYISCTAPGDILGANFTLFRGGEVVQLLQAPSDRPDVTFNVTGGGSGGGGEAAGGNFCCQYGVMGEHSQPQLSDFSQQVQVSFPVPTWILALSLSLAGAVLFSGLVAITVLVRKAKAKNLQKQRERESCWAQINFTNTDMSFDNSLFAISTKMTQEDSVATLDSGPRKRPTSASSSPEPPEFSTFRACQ

B1: Mouse anti human HIDE1 mAb (Biotem #33B4-2F7) (antibody, mouse IgG1, kappa, V domains shown)
VH: QIQLVQSGPELKKPGETVKISCKASGYTFTNYGMNWVKQAPGKGLKWMGWINTYTGEPTYADDFKGRFAFSLETPASTAYLQINNLKNEDMATYFCVREHFYALDYWGQGTSVTVSS
VL: KIVLTQSPASLAVSLRQRATISCRASESVDSYGNSFMHWYQQKPGQPPKLLIYRASNLESGVPARFSGSGSRTDFTLTIDPVEADDAATYYCQQSNEDPRTFGGGTKLEIKR
notes: Mouse IgG1; also called Ab-364
FACS (fold change from isotype) [1]: 3 fold
FACS (fold change from isotype) [2]: 14 fold
FACS (fold change from isotype) [3]: 4 fold
fold change (anti HIDE1 vs. isotype control) [4]: 7 fold
fold change (anti HIDE1 vs. isotype control) [5]: 3 fold
fold change (anti HIDE1 vs. isotype control) [6]: 17.7 fold
fold change (anti HIDE1 vs. isotype control) [7]: 5.2 fold
staining, folds over isotype control [8]: ~3 fold
fold change (anti HIDE1 vs. isotype control) [9]: 1.9 fold
binding result [10]: no binding (tested: 2 µg/ml)
